Assay results as given in patent US12060433B2, “CD73 inhibitor and A2A/A2B adenosine receptor inhibitor combination therapy” (Incyte Corporation, priority 2020, dated 2024).
Numbering of substitutions follows the chain as printed.

T1: human CD73 (SEQ ID NO: 70) (Homo sapiens, UniProt P21589)
T1 construct: purchased BPS Bioscience
T1 sequence (P21589 27-549): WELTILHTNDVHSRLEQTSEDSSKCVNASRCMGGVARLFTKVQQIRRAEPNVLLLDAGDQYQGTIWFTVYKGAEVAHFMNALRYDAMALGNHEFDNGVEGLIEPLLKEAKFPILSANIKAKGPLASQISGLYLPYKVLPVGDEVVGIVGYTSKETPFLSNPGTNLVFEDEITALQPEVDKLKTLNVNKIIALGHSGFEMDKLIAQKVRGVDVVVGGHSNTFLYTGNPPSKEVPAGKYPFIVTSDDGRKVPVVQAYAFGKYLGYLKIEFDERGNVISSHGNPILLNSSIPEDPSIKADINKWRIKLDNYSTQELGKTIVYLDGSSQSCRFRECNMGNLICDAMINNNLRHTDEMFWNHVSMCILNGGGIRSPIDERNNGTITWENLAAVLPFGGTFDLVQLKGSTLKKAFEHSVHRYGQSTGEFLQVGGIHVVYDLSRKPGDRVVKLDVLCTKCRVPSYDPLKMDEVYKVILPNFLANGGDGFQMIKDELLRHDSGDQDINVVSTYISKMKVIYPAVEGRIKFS

B1: CL25_hu_8-4: humanized CL25 antibody, VH and VL in FIG. 1B (antibody, V domains shown)
VH: QVQLVQSGAEVKKPGASVKVSCKASGYTFTSYGLSWVRQATGQGLEWMGEIYPGSGNTYYNEKFKGRVTMTRNTSISTAYMELSSLRSEDTAVYYCARYDYLGSSYGFDYWGAGTTVTVSS
VL: DIQMTQSPSSLSASVGDRVTITCKASQDVSTAVAWYQQKPGKAPKLLLYSASYRYSGVPSRFSGSGSGTDYTLTISSLQPEDFATYYCQQHYNTPYTFGGGTKLEIK
B2: CL25_hu_8-5: humanized CL25 antibody, VH and VL in FIG. 1B (antibody, V domains shown)
VH: B1 VH
VL: DIVMTQSPDSLAVSLGERATINCKASQDVSTAVAWYQQKPGQPPKLLIYSASYRYSGVPDRFSGSGSGTDFTLTISSLQAEDVAVYYCQQHYNTPYTFGGGTKLEIK
B3: CL25_hu_8-6: humanized CL25 antibody, VH and VL in FIG. 1C (antibody, V domains shown)
VH: B1 VH
VL: B1 VL with D1A, Q3R, L11F, V15T, L48I, Y71F, S77C, P80S
B4: CL25_hu_9-4: humanized CL25 antibody, VH and VL in FIG. 1C (antibody, V domains shown)
VH: B1 VH with A16S, T41P, M70I, R72A, N73D, T74E, I76T
VL: B1 VL
B5: CL25_hu_9-5: humanized CL25 antibody, VH and VL in FIG. 1C (antibody, V domains shown)
VH: B1 VH with A16S, T41P, M70I, R72A, N73D, T74E, I76T
VL: B2 VL
B6: CL25_hu_9-6: humanized CL25 antibody, VH and VL in FIG. 1C (antibody, V domains shown)
VH: B1 VH with A16S, T41P, M70I, R72A, N73D, T74E, I76T
VL: B1 VL with D1A, Q3R, L11F, V15T, L48I, Y71F, S77C, P80S
B7: CL25_hu_10-4: humanized CL25 antibody, VH and VL in FIG. 1A (antibody, V domains shown)
VH: EVQLVQSGAEVKKPGESLKISCKGSGYTFTSYGLSWVRQMPGKGLEWMGEIYPGSGNTYYNEKFKGQVTISADKSISTAYLQWSSLKASDTAMYYCARYDYLGSSYGFDYWGAGTTVTVSS
VL: B1 VL
B8: CL25_hu_10-6: humanized CL25 antibody, VH and VL in FIG. 1A (antibody, V domains shown)
VH: B7 VH
VL: B1 VL with D1A, Q3R, L11F, V15T, L48I, Y71F, S77C, P80S
B9: CL25_hu_11-4: humanized CL25 antibody, VH and VL in FIG. 1A (antibody, V domains shown)
VH: B1 VH with R72A
VL: B1 VL
B10: CL25_hu_11-5: humanized CL25 antibody, VH and VL in FIG. 1B (antibody, V domains shown)
VH: B1 VH with R72A
VL: B2 VL
B11: CL25_hu_11-6: humanized CL25 antibody, VH and VL in FIG. 1B (antibody, V domains shown)
VH: B1 VH with R72A
VL: B1 VL with D1A, Q3R, L11F, V15T, L48I, Y71F, S77C, P80S

biological target: T1, human CD73 (SEQ ID NO: 70); test: SPR (Biacore 8K) binding affinity and kinetics to human CD73; details: human CD73, open conformation, 25° C.
Method: The SPR running buffer (10 mM HEPES, 150 mM NaCl, 3 mM EDTA and 0.05% v/v Surfactant P20, pH 7.4) was prepared from 10×HBS-EP Buffer (GE Healthcare). Anti-human Fc antibodies (GE Healthcare) were immobilized via amine coupling on all sixteen flow cells of an S series sensor chip CM5 (GE Healthcare). The immobilization levels were ˜9000 RU for all flow cells. The desired capturing level of anti-CD73 antibody was achieved by flowing appropriate concentration of anti-CD73 antibody through the active flow cell of each channel. The non-cleavable ADP analogue APCP (adenosine-5′-(α,β-methylene) diphosphate) with the presence of Zn^2+ can be used to shift the CD73 conformational equilibrium from open towards closed. Therefore, recombinant CD73 was incubated with SPR running buffer in the presence of 100 μM APCP and 10 μM ZnCl2 (closed SPR running buffer) to study the binding of anti-CD73 antibody to the CD73 in the closed conformation. To achieve this, the ABA injection feature in Biacore 8K was used. For open conformation, the ABA injection sequence started with 60 seconds injection of running buffer. Then, CD73 3-fold serial dilution concentration series prepared from CD73 stock (BPS Bioscience) and running buffer were injected for 180 seconds immediately followed by running buffer for 240 seconds. For closed conformation, the normal SPR running buffer was replaced by closed SPR running buffer. Surface was regenerated with 30 seconds injection of 3 M MgCl2. […] Binding affinities and kinetic association and dissociation rate constants to human, cynomolgus, and mouse CD73 in either open or closed conformations are shown in Table 8 below. The results in Table 8 ensure cynomolgus pharmacokinetic data will reflect human pharmacokinetic data.
Binding affinities and kinetic association and dissociation rate constants to human, cynomolgus, and mouse CD73 in either open or closed conformations are shown in Table 9 below.

**Q.** Which results are given for B1?
**A.** ka: 770000 M⁻¹ s⁻¹; kd: 0.00176 s⁻¹

**Q.** What does the source list for B2?
**A.** ka: >1e+06 M⁻¹ s⁻¹; kd: 0.000949 s⁻¹

**Q.** Which ka does the source give for B3 here?
**A.** Its ka is 715000 M⁻¹ s⁻¹.

**Q.** What about the kd of the same molecule?
**A.** Its kd is 0.00111 s⁻¹.

**Q.** What does the source list for B4?
**A.** ka: 382000 M⁻¹ s⁻¹; kd: 0.00264 s⁻¹

**Q.** B5 was tested. Which ka did it give?
**A.** The ka was 565000 M⁻¹ s⁻¹.

**Q.** And the kd?
**A.** Its kd is 0.00114 s⁻¹.

**Q.** How did the ka turn out when B6 was run?
**A.** The ka was 424000 M⁻¹ s⁻¹.

**Q.** And the kd?
**A.** The kd was 0.000953 s⁻¹.

**Q.** With B7 as the molecule, how does the ka read?
**A.** The ka was 887000 M⁻¹ s⁻¹.

**Q.** And the kd?
**A.** Its kd is 0.00107 s⁻¹.

**Q.** With B8 as the molecule, how does the ka read?
**A.** The ka was 524000 M⁻¹ s⁻¹.

**Q.** And the kd?
**A.** The kd was 0.00092 s⁻¹.

**Q.** How did the ka turn out when B9 was run?
**A.** Its ka is 624000 M⁻¹ s⁻¹.

**Q.** What about the kd of the same molecule?
**A.** Its kd is 0.00155 s⁻¹.

**Q.** Which results are given for B10?
**A.** ka: 799000 M⁻¹ s⁻¹; kd: 0.00117 s⁻¹

**Q.** For B11, which ka is on record?
**A.** The ka was 550000 M⁻¹ s⁻¹.

**Q.** What about the kd of the same molecule?
**A.** The kd was 0.00101 s⁻¹.
